Data published in article PMC10907165, “Discovery and structural characterization of the D-box, a conserved TonB motif that couples an inner-membrane motor to outer-membrane transport” (The Journal of Biological Chemistry, 2024).
Ends that are not written are not given here.

B3: ExbD periplasmic domain (E. coli ExbD residues 59-141) (domain or fragment)
chain: GRPEKPVYLSVKADNSMFIGNDPVTDETMITALNALTEGKKDTTIFFRADKTVDYETLMKVMDTLHQAGYLKIGLVGEETAKAK
notes: single glycine residue left upstream of Arg-59 after proteolytic removal of the SUMO tag; ExbD, E. coli, periplasmic domain, residues 59-141 (begins at Arg-59); codon-optimised synthetic gene in pETHSUL; the methods and legends say 59-141; Two copies of this domain hold one D-box peptide in the crystals and by ITC; also called ExbD_(59-141); ExbD C-terminal periplasmic domain; source: E. coli …

Key:
[1] = target: B3; assay: fluorescence polarisation; fluorescence anisotropy; 100 nM AF488-labeled peptide, ExbD protein varied; 40 mM Tris pH 8.0, 150 mM NaCl; room temperature; details: both partners purified
[2] = target: B3; assay: ITC; D-box peptide (1 mM) injected into 100 uM ExbD protein at 288 K; 10 mM MES pH 5.3, 60 mM NaCl; two-state binding model; details: both partners purified
[3] = target: the molecule itself; assay: crystal structure; ExbD periplasmic domain mixed with the D-box peptide; crystals from ammonium sulfate; orthorhombic and tetragonal forms, about 1.4 A

B1: AF488-labeled D-box peptide (QPISVTMVTPADC) (peptide)
peptide: QPISVTMVTPADC(AF488 maleimide)
notes: TonB, E. coli, residues 43-54 (D-box peptide); cysteine added at the C-terminus for labelling with the maleimide dye; not a TonB residue; also called fluorescently labeled D-box peptide; fluorophore-labeled D-box peptide; source: synthetic peptide (Biomatik Corporation), labelled with AF488-maleimide, purified on a C18 column
Q: With B1 as the binder, how does the Kd [1] read?
A: 45 ± 9 µM

B2: D-box peptide (residues 43 to 54 of E. coli TonB) (peptide)
peptide: QPISVTMVTPAD
notes: TonB, E. coli, residues 43-54, holds the D-box motif; The description of the crystal structure numbers the peptide Gln-55 to Thr-63, that is 12 higher than the TonB numbers; also called TonB D-box peptide; source: synthetic peptide (VWR Scientific)
Q: What does the source list for B2?
A: Kd [2]: 19 ± 1 µM; stoichiometry N [2]: 0.5 D-box peptide per ExbD

Q: Does B3 bind [3]?
A: binds
